# Source: article PMC5835112
# Molecular target: CsrA (Yersinia pseudotuberculosis, UniProt B1JJ99 1-61)
# Test: analytical SEC; 50 uM CsrA, 25 uM RNA
# Details: protein: recombinant; tags: His6 (pET28a); chain copies: 2; hairpin (predicted)
# Sequence of CsrA (B1JJ99 whole entry): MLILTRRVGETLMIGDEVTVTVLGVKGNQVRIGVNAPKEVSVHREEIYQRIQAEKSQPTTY
binder,measurement,value
CUUUCACUUUCUUAACAUGAUACAGGAGGGCUUAUG (structured_RNA) [urease SD RNA (Pure-CsrA RNA)],binding result,binds
